Results from patent US6132750A (Coletica, priority 1998, dated 2000).

Assay: Inhibition of the Fe2+ induced radical degradation of hyaluronic acid (viscosity drop)
Procedure: The chelating microspheres prepared according to I2 are used to evaluate their capacity, via the trapping of ferrous iron Fe2+, to inhibit the radical degradation of hyaluronic acid, glycosarinoglycan implied in the moisturisation of the human dermis, which is therefore a particularly important target to protect in cosmetic and dermo-pharmaceutical applications.
A 10 g/l solution of hyaluronic acid of high molecular weight (>1,000,000g/mol or Daltons) is prepared in demineralised water. To this solution is added an amount of Fe2+ of 620 ppm.
Other chelating agents which are conventionally used in cosmetics were used and compared to the chelating microspheres, for their capacity to reduce the radical degradation of hyaluronic acid. Indices of protection, expressed in % of protection, are calculated by carrying out a ratio of the drop in viscosity observed by the presence of iron Fe2+ (620 ppm) in the presence of the chelating agent studied, and the drop in viscosity observed with and without iron Fe2+.

B1: Lactoferrin (protein, UniProt P02788 20-710, looked up)
Lactotransferrin: GRRRSVQWCAVSQPEATKCFQWQRNMRKVRGPPVSCIKRDSPIQCIQAIAENRADAVTLDGGFIYEAGLAPYKLRPVAAEVYGTERQPRTHYYAVAVVKKGGSFQLNELQGLKSCHTGLRRTAGWNVPIGTLRPFLNWTGPPEPIEAAVARFFSASCVPGADKGQFPNLCRLCAGTGENKCAFSSQEPYFSYSGAFKCLRDGAGDVAFIRESTVFEDLSDEAERDEYELLCPDNTRKPVDKFKDCHLARVPSHAVVARSVNGKEDAIWNLLRQAQEKFGKDKSPKFQLFGSPSGQKDLLFKDSAIGFSRVPPRIDSGLYLGSGYFTAIQNLRKSEEEVAARRARVVWCAVGEQELRKCNQWSGLSEGSVTCSSASTTEDCIALVLKGEADAMSLDGGYVYTAGKCGLVPVLAENYKSQQSSDPDPNCVDRPVEGYLAVAVVRRSDTSLTWNSVKGKKSCHTAVDRTAGWNIPMGLLFNQTGSCKFDEYFSQSCAPGSDPRSNLCALCIGDEQGENKCVPNSNERYYGYTGAFRCLAENAGDVAFVKDVTVLQNTDGNNNEAWAKDLKLADFALLCLDGKRKPVTEARSCHLAMAPNHAVVSRMDKVERLKQVLLHQQAKFGRNGSDCPDKFCLFQSETKNLLFNDNTECLARLHGKTTYEKYLGPQYVAGITNLKKCSTSPLLEACEFLRK
notes: chelating agent conventionally used in cosmetics for trapping iron
Index of protection (%) (concentration used 133 mg/l, hyaluronic acid 10 g/l, Fe2+ 620 ppm): 25% | effect on the depolymerisation (radical cleavage) of hyaluronic acid in the presence of iron (in words): accelerated
